# From article PMC10682184, “Molecular basis for the catalytic mechanism of human neutral sphingomyelinases 1 (hSMPD2)” (Nature Communications, 2023)
# Target: the molecule itself
# Experiment: cryo-EM structure; apo hSMPD2 at about 10 mg/mL in 25 mM Hepes pH 7.4, 150 mM NaCl, 2 mM Mg2+, 0.005% LMNG; final map refined with C2 symmetry
protein,measurement,value
"human neutral sphingomyelinase 1 (hSMPD2), full length, wild type, twin-Strep tagged (enzyme, UniProt O60906 1-423, looked up, human SMPD2 (neutral sphingomyelinase 1), UniProt O60906, full length; cloned from human cDNA into pcDNA3.1(-); In the cryo-EM model the loop preceding TMH1 and residues 403-423 were disordered and not modelled; also called nSMase1; apo hSMPD2; source: HEK293F, transiently transfected, purified (membranes solubilised in LMNG, Strep-Tactin, size-exclusion chromatography)) MKPNFSLRLRIFNLNCWGIPYLSKHRADRMRRLGDFLNQESFDLALLEEVWSEQDFQYLRQKLSPTYPAAHHFRSGIIGSGLCVFSKHPIQELTQHIYTLNGYPYMIHHGDWFSGKAVGLLVLHLSGMVLNAYVTHLHAEYNRQKDIYLAHRVAQAWELAQFIHHTSKKADVVLLCGDLNMHPEDLGCCLLKEWTGLHDAYLETRDFKGSEEGNTMVPKNCYVSQQELKPFPFGVRIDYVLYKAVSGFYISCKSFETTTGFDPHRGTPLSDHEALMATLFVRHSPPQQNPSSTHGPAERSPLMCVLKEAWTELGLGMAQARWWATFASYVIGLGLLLLALLCVLAAGGGAGEAAILLWTPSVGLVLWAGAFYLFHVQEVNGLYRAQAELQHVLGRAREAQDLGPEPQPALLLGQQEGDRTKEQ",stoichiometry N,2
